B1: Metastasis-associated protein MTA3, residues 265 to 317; numbered along this chain, Q9BTC8 (parent)
chain: RDEMEEWSASEASLFEEALEKYGKDFNDIRQDFLPWKSLTSIIEYYYMWKTTD

Variants of: B1
Assay: abundance fitness (aPCA) (normalised: wild type 0, dead -1); higher = more abundant; growth selection in yeast, the domain comes from the species named
Conditions: Homo sapiens

Abundance fitness, by site and new letter:
W49: I -0.04 | R 0.514 | T 0.248 | C 0.061 | A -0.088 | K 0.497 | Q 0.349 | P -0.599 | Y 0.077 | E 0.075
I43: S -0.297 | C -0.517 | L -0.689 | G -0.491 | A -0.148 | D -1.11 | H -0.075 | R 0.162 | F -0.474 | E 0.392 | K 0.268 | Q 0.136 | W -0.559 | V -0.381 | Y -0.304 | P -0.875 | N -0.7 | M -0.01 | T -0.193
F33: L -0.169
F26: S -0.959
D28: N -0.112 | W 0.035 | T 0.59 | E 0.305 | Y 0.322 | A 0.861 | Q 1.19 | G 0.079 | R 0.549 | F -0.015 | S 0.644 | L 0.978 | M 0.331 | K 0.9 | C 0.882 | I 0.324 | P -0.522
Y46: P -0.598 | L -0.851 | S -0.457 | W -0.62 | V -0.98 | N -0.907 | A -0.824 | E -0.531 | H -0.176 | K -0.791 | M -0.99 | G -0.422 | C -0.976
M48: P -0.817 | W -0.256 | Q 0.133 | G -0.257 | A -0.006 | F 0.204 | D -0.619 | C -0.086 | S -0.04 | E -0.207 | N -0.144 | K 0.128 | T -0.103 | V -0.212 | L -0.176 | R 0.323
S38: F -0.844 | K -0.852 | Y -0.711 | E 0.047 | M -0.159 | W -0.992 | H -0.425 | C -0.995 | R -0.749 | L -0.69 | D -0.71 | I -0.629 | Q -0.393 | P -0.563 | G 0.47 | V -0.821
Y45: Q -0.566 | G -0.98 | W -0.546 | R -0.174 | P -0.726 | T -0.41 | S -0.561 | E -0.77 | V -1.01 | M -0.872
Y47: K 0.375 | L -0.735 | C -0.187 | V -0.681 | E 0.516 | N 0.053 | Q 0.329 | R 0.31 | G 0.027 | T 0.398 | W -0.174 | S 0.325 | A 0.387 | H 0.196
K37: M -0.719 | G -0.812 | W -0.84 | P -0.877 | S -0.65 | T -0.88 | I -0.586 | Y -0.806 | C -0.763 | D -0.707 | E -0.806 | V -0.842 | F -0.785 | R -0.398 | N -0.803 | L -0.802 | H -0.941
I42: R -0.69 | M -0.833 | Y -0.572 | W -0.204 | Q -0.875 | S -0.713 | H -0.744 | C -0.711 | L -0.658 | D -0.828 | E -0.888 | V -0.475 | A -0.98 | T -0.605 | F -0.634 | P -0.798
T40: C -0.328 | M -0.435 | W -0.898 | V -0.714 | N 0.129 | G -0.188 | D 0.195 | Y -0.571 | H -0.138 | Q 0.195 | A -0.322 | P -0.332 | R -0.029 | F -0.875 | I -0.771 | L -0.827 | S -0.336

From the Human Domainome abundance scans (Beltran et al. 2025)
